Experimental data: US20260201038A1 (CELLABMED, published 2026)

Assays:
B7-2 = biological target: T1, B7-2 (UniProt P42081 24-247, limits assumed); assay: indirect ELISA, B7-2 coated at 1 ug/mL, absorbance at 450 nm
T1 sequence (looked up): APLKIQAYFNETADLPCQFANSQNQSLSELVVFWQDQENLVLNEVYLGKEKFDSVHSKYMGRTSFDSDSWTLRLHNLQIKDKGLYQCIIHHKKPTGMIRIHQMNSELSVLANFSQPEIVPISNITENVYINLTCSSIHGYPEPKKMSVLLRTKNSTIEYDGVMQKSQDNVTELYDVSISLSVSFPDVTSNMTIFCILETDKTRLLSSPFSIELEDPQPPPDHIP
Protocol: [The procedure below names another target; the source lists this target under the same test.] (§1) The binding ability of 2D IgG prepared in Example 2 for recombinant B7-H3 protein was investigated by indirect ELISA. For indirect ELISA, recombinant human 4lg B7-H3, recombinant human 2lg B7-H3 and recombinant mouse B7-H3 were diluted respectively to 1 μg/mL in 50 μL of PBS and adsorbed overnight onto a 96-well immunoplate (Corning, USA) by storing at 4° C. After reaction with a buffer solution containing 3% bovine serum albumin at room temperature for 1 hour, followed by washing 3 times with a buffer solution containing 0.5% Tween 20, each well was treated with 50 μL of the antibodies diluted serially (0.0001, 0.0003, 0.001, 0.003, 0.01, 0.03, 0.1, 0.3, 1, 3 and 10 nM). For antigen-antibody binding, the mixture was reacted at room temperature for 2 hours, and then washed 3 times with a buffer solution containing 0.5% Tween 20. After treating each well with 50 μL of anti-human immunoglobulin Fc-HRP antibodies (Jackson Immunoresearch, USA) diluted to 1:3,000, reaction was conducted at room temperature for 1 hour. […] As a result of measuring absorbance at 450 nm using a spectrophotometer (Biotek, USA), it was confirmed that 2D IgG binds to B7-H3, and the binding ability was in the order of 4lg B7-H3, 2lg B7-H3 and mouse B7-H3 (FIG. 2a). […]

B7-H4 = biological target: T2, B7-H4 (UniProt Q7Z7D3 25-258, limits assumed); assay: indirect ELISA, B7-H4 coated at 1 ug/mL, absorbance at 450 nm
T2 sequence (looked up): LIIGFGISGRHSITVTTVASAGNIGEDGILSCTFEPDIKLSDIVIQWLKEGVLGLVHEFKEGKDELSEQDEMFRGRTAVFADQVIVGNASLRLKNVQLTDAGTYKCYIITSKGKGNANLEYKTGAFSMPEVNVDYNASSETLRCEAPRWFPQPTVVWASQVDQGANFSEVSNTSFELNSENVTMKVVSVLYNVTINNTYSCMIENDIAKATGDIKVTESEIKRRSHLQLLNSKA
Protocol: [The procedure below names another target; the source lists this target under the same test.] as §1

[1] = biological target: B7-H3 on human cancer cells (human) (UniProt Q5ZPR3); assay: flow cytometry on PC-3 prostate cancer cells; control (secondary antibody only) < 20%
[2] = biological target: B7-H3 on human cancer cells (human) (UniProt Q5ZPR3); assay: flow cytometry on A549 lung cancer cells; control (secondary antibody only) < 5%
B7-H2 = biological target: T3, B7-H2 (UniProt O75144 19-256, limits assumed); assay: indirect ELISA, B7-H2 coated at 1 ug/mL, absorbance at 450 nm
T3 sequence (looked up): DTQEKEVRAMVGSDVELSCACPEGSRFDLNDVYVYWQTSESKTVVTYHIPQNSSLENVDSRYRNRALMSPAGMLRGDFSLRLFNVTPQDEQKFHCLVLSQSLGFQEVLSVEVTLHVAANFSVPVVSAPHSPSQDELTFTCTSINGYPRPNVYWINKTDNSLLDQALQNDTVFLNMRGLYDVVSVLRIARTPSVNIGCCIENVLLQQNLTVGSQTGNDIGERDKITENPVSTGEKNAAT
Protocol: [The procedure below names another target; the source lists this target under the same test.] as §1

[3] = biological target: B7-H3 on human cancer cells (human) (UniProt Q5ZPR3); assay: flow cytometry on Panc-1 pancreatic cancer cells; control (secondary antibody only) < 15%
[4] = biological target: B7-H3 on human cancer cells (human) (UniProt Q5ZPR3); assay: flow cytometry on U87 brain tumor cells; control (secondary antibody only) < 10%
VEVQVPEDPVVALVG = biological target: T4, VEVQVPEDPVVALVG; assay: peptide microarray, 15-mers of human 4Ig B7-H3; panel Ig-like-V type 2
T4 construct: 15-mer of human 4Ig B7-H3 on the peptide microarray, panel Ig-like-V type 2
T4 peptide: VEVQVPEDPVVALVG
Protocol: It was confirmed that G2D IgG has linear epitopes since G2D was verified to recognize 4lg B7-H3 through western blot (FIG. 10a). Therefore, linear epitope mapping was conducted by Pepperprint GmbH (Germany). After preparing a peptide microarray from the 15 4lg B7-H3 amino acids with 14-amino acid overlaps, the antibodies binding to peptides were identified using secondary antibodies (FIG. 10b). As a result, it was confirmed that G2D IgG binds to a peptide having a sequence of EVQVP (FIG. 10c). EVQVP is located in the Ig-like V-type1 and Ig-like V-type2 domains of 4lg B7-H3 (FIGS. 10d and 10e). When the epitopes of the control antibody enoblituzumab were identified by the same method, it was confirmed that the epitopes include the sequence of GYPEAE (FIG. 10b), and GYPEAE is located in the Ig-like C2-type1 and Ig-like C2-type2 domains of 4lg B7-H3 (FIGS. 10d and 10e). As a result, it was confirmed that G2D IgG and the control antibody enoblituzumab have different epitopes.

B7-DC = biological target: T5, B7-DC (UniProt Q9BQ51 20-219, limits assumed); assay: indirect ELISA, B7-DC coated at 1 ug/mL, absorbance at 450 nm
T5 sequence (looked up): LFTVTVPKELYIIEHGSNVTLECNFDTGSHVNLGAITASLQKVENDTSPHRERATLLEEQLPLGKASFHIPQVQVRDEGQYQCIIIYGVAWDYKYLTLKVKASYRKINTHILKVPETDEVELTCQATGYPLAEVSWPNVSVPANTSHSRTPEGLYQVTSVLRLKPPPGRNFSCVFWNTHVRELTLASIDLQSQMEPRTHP
Protocol: [The procedure below names another target; the source lists this target under the same test.] as §1

[5] = biological target: mouse B7-H3 expressed on Raji cells (mouse) (UniProt Q8VE98); assay: flow cytometry on Raji cells expressing mouse B7-H3; the vector control Raji cells show < 10%
Chain of mouse B7-H3 expressed on Raji cells (mouse) (Q8VE98 other isoform, or with tags, fused parts or gaps, form in doubt): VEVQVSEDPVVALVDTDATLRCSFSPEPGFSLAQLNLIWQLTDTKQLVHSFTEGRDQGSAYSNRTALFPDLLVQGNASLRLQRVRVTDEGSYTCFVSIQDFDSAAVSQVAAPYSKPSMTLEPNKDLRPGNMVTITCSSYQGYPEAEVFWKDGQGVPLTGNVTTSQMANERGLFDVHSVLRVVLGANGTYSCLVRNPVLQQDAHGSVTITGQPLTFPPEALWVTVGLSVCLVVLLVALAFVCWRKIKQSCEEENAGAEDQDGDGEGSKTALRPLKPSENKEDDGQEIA

binding result (B7-2): no binding (tested: 10 nM)
binding result (B7-H4): no binding (tested: 10 nM)
% of cells in the positive gate [1]: > 95%
% of cells in the positive gate [2]: > 95%
binding result (B7-H2): no binding (tested: 10 nM)
% of cells in the positive gate [3]: > 95%
% of cells in the positive gate [4]: > 95%
fluorescence intensity of the peptide spot (VEVQVPEDPVVALVG): 92.5
binding result (B7-DC): no binding (tested: 10 nM)
% of cells in the positive gate (P5) [5]: > 95%
B1: G2D IgG (antibody, V domains shown)
VH: QVQLVESGGGLVQPGGSLRLSCSASGFDFSSYPMVWVRQAPGKGLEYVSSINSGGSWTGYGAAVKGRATISRDNSKNTLYLQMNSLRAEDTATYYCARAYGAATIDAWGQGTTVTVSS
VL: SYELTQPPSVSVSPGQTARITCSGGSIGYGWYQQKAPGQAPVTVIYYNDRRPSGIPERFSGSKSGTTNTLTISGVQAEDEADYYCGSADSSSTYTGIFGGGTKLTVL
notes: The back-substitutions (L46T, S66K, V71N in VL); also called humanized 2D; G2D antibody
